# Results reported in publication PMC12409439 (The Journal of Biological Chemistry, 2025).
# Molecular target: the molecule itself
# Test: cryo-EM structure; Dmc1 (2.5 uM) with 0.125 uM 96-mer ssDNA in HR buffer with 1.5 mM CaCl2 and 5 mM ADP, 30 °C, 5 min, then 8 mM CHAPSO; interdigitated filaments deconvolved into single filaments; filament formation required the ssDNA
protein,measurement,value
"Saccharomyces cerevisiae Dmc1 (natural protein, S. cerevisiae, Dmc1, S. cerevisiae, expressed from a plasmid encoding 6XHisDmc1; Stood as a helical filament assembled with a 96-mer ssDNA, ADP, Mg2+ and Ca2+; six protomers were modelled; No removal of the His tag is described; The N-terminal end of the tag is read from the printed name 6XHisDmc1; also called Dmc1-ADP; source: E. coli BL21 (DE3) Rosetta2, purified (Talon resin, heparin sepharose)) MSVTGTEIDSDTAKNILSVDELQNYGINASDLQKLKSGGIYTVNTVLSTTRRHLCKIKGLSEVKVEKIKEAAGKIIQVGFIPATVQLDIRQRVYSLSTGSKQLDSILGGGIMTMSITEVFGEFRCGKTQMSHTLCVTTQLPREMGGGEGKVAYIDTEGTFRPERIKQIAEGYELDPESCLANVSYARALNSEHQMELVEQLGEELSSGDYRLIVVDSIMANFRVDYCGRGELSERQQKLNQHLFKLNRLAEEFNVAVFLTNQVQSDPGASALFASADGRKPIGGHVLAHASATRILLRKGRGDERVAKLQDSPDMPEKECVYVIGEKGITDSSD",binding result,binds
